Laboratory results from the supplement of paper PMC12042874.
± gives the uncertainty stated by the source.

Test: amyloid nucleation score (Sup35N fusion, yeast selection) (log enrichment); library NNK1; higher = more nucleation; inactive = no reads after selection
How it was run: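 The nucleation score is a DiMSum log enrichment of output over input reads, centred on the mode score of non-aggregating sequences. Sequences under 100 input reads were excluded, and reads came from Illumina sequencing of plasmid inserts. Psi-negative yeast expressing Sup35N fused to peptides of 20 random codons were induced with 100 μM copper sulfate for 24 hours and grown 7 days at 30°C on medium lacking adenine and uracil. Random libraries had three technical output replicates.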

Substance	amyloid nucleation score
NCVRSCISMQVYCTPAVVMY	5.483 ± 0.053
NDLYVGLDTYYIRHNLTRWF	0.447 ± 0.2
NDSDARYHVFRK	-0.256 ± 1.2
NDTQLRISACYALRDNGEWV	1.12 ± 0.66
NEGEVIAELIIFVNPWVTI	-0.599 ± 0.43
NEGIMPLVNHSKQEEPGVYR	0.753 ± 0.57
NEHAENDVTFQGNEDICVVM	-0.419 ± 0.34
NESEFLFSKAHRMVVIP	inactive
NEWKSLSINEMRGSMTINNS	1.44 ± 0.12
NFELEHLEICSDVCFGCAAE	1.12 ± 0.65
NFFQWPSVETWTASIN	-0.144 ± 0.41
NFINVVVWQEGYLRVIHTSV	0.537 ± 1.1
NFKNKIMGALS	-0.548 ± 2.1
NFKVYPSGCKEECAYVLLSL	3.87 ± 0.079
NFRKL	inactive
NFRWILSSAMDAIFPYVAFV	1.52 ± 0.78
NGCFIAFLTMFTYFTCTRVS	-0.76 ± 0.8
NGEIVYASWTCDPSIGRRGK	0.207 ± 0.97
NGGYYAMGVGFLYVFALCHD	2.05 ± 0.27
NGKEDKTCLWSVQPYCKSCE	-0.475 ± 1.2
NGLFAYVRM	0.505 ± 0.27
NGLSRYKKDLGLVDWYFGQM	0.744 ± 0.37

Substance	amyloid nucleation score
NGWPWGERSALRMG	-0.573 ± 0.95
NGWTFYCSCSWCGI	8.306 ± 0.049
NGYWLSFWTSRY	1.63 ± 0.46
NHFLRSNNKYLSWGKTYIAP	-0.846 ± 2.4
NHRNVMRQIDASVMGVYNTW	0.766 ± 1.2
NHSNTCEWRSCRP	0.551 ± 0.61
NIANSWYW	-0.537 ± 1.9
NIGNVMRSCSKVYSLSLKQL	0.585 ± 0.31
NIHSEAPISPSMPGLREVTA	0.219 ± 0.32
NIKDRILYNVYMRGMCIYCL	6.137 ± 0.053
NISSNRCVNNVAPSDSSTYF	-0.091 ± 0.69
NIYVGSYTLYTTN	5.386 ± 0.047
NKLCTR	inactive
NLECFTCFFLYTIDMNLKP	4.94 ± 0.053
NLHFVGTCHTFSSAYNRRET	-0.95 ± 2.7
NLICDLGNSVTMSVRDDQTV	-0.013 ± 0.36
NLILDQVNTYSLCSTIFI	7.291 ± 0.058
NLLYTY	1 ± 0.53
NLRLAWRGQTVCRETHKRPF	2.37 ± 0.13
NLRQVCNSAFVVGSVIFFWV	-0.318 ± 0.69
NLTGGCLGVRWDMVECAWYY	3.77 ± 0.068
NLTRSVHVMRQVIVQHFIGN	0.424 ± 0.72

Substance	amyloid nucleation score
NLTSVPYMPLECDYHARSYF	-1.55 ± 1.2
NMALCTCGLNPGNL	0.003 ± 0.46
NMFMIV	-1.05 ± 1.3
NMIESIVDISTPFIHGMIND	0.295 ± 1.1
NMSGMVLGLVLTATWSFMSV	0.588 ± 0.45
NMTPFGYIHFTL	0.644 ± 1
NMTSYSIYGELE	-0.341 ± 0.21
NNCSWIIGHRVVPTSRGE	-0.329 ± 0.45
NPDDVFMSAVWGYF	-0.127 ± 0.19
NPKSFNGCVFRLGGVPYFVS	0.076 ± 0.36
NPLHTMFTLYEIRQWRLF	-0.048 ± 0.3
NPMLLPSEPSS	-0.181 ± 0.42
NPPGGDIYEC	-0.721 ± 0.53
NPPVWPSTFQE	-0.159 ± 0.58
NPRLCPKDMRGRPQEKRVPQ	-0.345 ± 1.7
NPVPGARKNRVHAGSKSDTG	0.075 ± 0.68
NREVYKMLLGCFSIHISCNR	inactive
NRFTHHSIR	1.19 ± 0.84
NRIFCLYSFCCFHENWVGLY	4.96 ± 0.095
NRIMY	-0.09 ± 0.2
NRIRRWWTFRVLGDSQKCVD	0.411 ± 1
NRNERVTHSSQFSIGFEERM	1.14 ± 0.57

Substance	amyloid nucleation score
NRQKFSDVSYCTMTMFRVAH	-0.61 ± 1.7
NRRMFV	-1.13 ± 0.48
NRRSSKLIN	inactive
NRTWGYLSCALRNPSMTT	-0.305 ± 0.47
NRVLLSEAKSQFIG	0.366 ± 0.59
NSCNDRFHLAMRQGF	0.067 ± 0.84
NSDKLPRCHLSLSYV	0.994 ± 0.28
NSELFIGGDYLDIDST	0.591 ± 0.43
NSFKCFNDRNEVALMITHRE	-0.526 ± 0.77
NSFSDSHRWKPGRRNRCKRG	1.07 ± 0.97
NSIFLLSYLKLIFAVYA	inactive
NSILVNVYDKTFRVGLRGRN	inactive
NSIPLDLSNTLLLCARC	-0.02 ± 0.49
NSNMGCSVI	-0.596 ± 1
NSRKSAGHPSLESGSLLCYA	-0.041 ± 0.5
NSRMRFILGTFY	1.63 ± 0.41
NSSMVG	-1.16 ± 1.7
NSVAGSYGVWQWGDSRSLPP	0.262 ± 0.43
NSYKNYCVLCECRC	4.21 ± 0.07
NSYRFSLFQ	1.32 ± 0.46
NSYTCNMFDLVFCAYTIASI	4.95 ± 0.057
